Assay results reported in patent publication US20080076129A1, “Method of Detecting an Increased Susceptibility to Breast Cancer” (priority 2000, published 2008).

T1: CYP1B1 (Homo sapiens, UniProt Q16678, L432V)
T1 construct: made in house; host or cells: Escherichia coli DH5αF′Iq
T1 sequence (Q16678 26-543 L432V): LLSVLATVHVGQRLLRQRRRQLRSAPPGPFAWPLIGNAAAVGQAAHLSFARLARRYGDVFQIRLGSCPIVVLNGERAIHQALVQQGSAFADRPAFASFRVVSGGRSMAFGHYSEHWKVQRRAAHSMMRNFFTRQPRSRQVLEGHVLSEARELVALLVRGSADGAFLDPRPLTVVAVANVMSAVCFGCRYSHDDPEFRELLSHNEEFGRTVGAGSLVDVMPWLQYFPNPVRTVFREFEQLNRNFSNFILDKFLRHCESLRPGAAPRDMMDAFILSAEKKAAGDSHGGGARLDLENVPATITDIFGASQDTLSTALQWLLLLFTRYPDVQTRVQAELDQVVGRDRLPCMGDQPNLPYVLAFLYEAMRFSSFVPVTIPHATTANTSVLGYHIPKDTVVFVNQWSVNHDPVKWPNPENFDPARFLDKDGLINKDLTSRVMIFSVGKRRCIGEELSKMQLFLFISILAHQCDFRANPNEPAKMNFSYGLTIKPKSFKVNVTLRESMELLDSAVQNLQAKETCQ

B1: Wild type: purified recombinant His-tagged CYP1B1 with 48Arg, 119Ala, 432Val, 453Asn (protein)
chain: HHHHHHLLSVLATVHVGQRLLRQRRRQLRSAPPGPFAWPLIGNAAAVGQAAHLSFARLARRYGDVFQIRLGSCPIVVLNGERAIHQALVQQGSAFADRPAFASFRVVSGGRSMAFGHYSEHWKVQRRAAHSMMRNFFTRQPRSRQVLEGHVLSEARELVALLVRGSADGAFLDPRPLTVVAVANVMSAVCFGCRYSHDDPEFRELLSHNEEFGRTVGAGSLVDVMPWLQYFPNPVRTVFREFEQLNRNFSNFILDKFLRHCESLRPGAAPRDMMDAFILSAEKKAAGDSHGGGARLDLENVPATITDIFGASQDTLSTALQWLLLLFTRYPDVQTRVQAELDQVVGRDRLPCMGDQPNLPYVLAFLYEAMRFSSFVPVTIPHATTANTSVLGYHIPKDTVVFVNQWSVNHDPLKWPNPENFDPARFLDKDGLINKDLTSRVMIFSVGKRRCIGEELSKMQLFLFISILAHQCDFRANPNEPAKMNFSYGLTIKPKSFKVNVTLRESMELLDSAVQNLQAKETCQ

Experiments:
DNA = conditions: cited from earlier work
CYP1B1 [1] = target: T1, CYP1B1; assay: Assay of CYP1B1 E2 hydroxylation activity; format: biochemical; conditions: text and FIG. 4; read-out: 2-OH-E2 hydroxylation Km
Procedure: (§1) Assay of CYP1B1 E2 Hydroxylation Activity. Purified CYP1B1 (200 pmol) was reconstituted with a 2-fold molar amount of recombinant rat NADPH-P450 reductase (400 pmol), purified as previously described, and 60 μg of L-α-dilauroyl-sn-glycero-3-phosphocholine in the presence of sodium cholate (0.005%, w/v) in 0.4 ml of 100 mM potassium phosphate buffer, pH 7.4, containing varying concentrations of E2 (2, 3, 6, 9, 12, 15, 20, 40, 60, 80, and 100 μM) and 1 mM ascorbate. An NADPH-generating system consisting of 5 mM glucose 6-phosphate and 0.5 U of glucose-6-phosphate dehydrogenase/ml was added and reactions initiated by adding NADP+ to a final concentration of 0.5 mM. Reactions proceeded for 10 min at 37° C. with gentle shaking and then were terminated by addition of 2 ml CH2Cl2.
(§2) Extraction and Gas Chromatography/Mass Spectrometry Analysis of E2 and Metabolites. A deuterated internal standard (100 μl of 8 mg/liter E2-2, 4, 16, 16-d4 in methanol; CDN Isotopes, Pointe-Claire, Quebec) was added and all steroids extracted into CH2Cl2 by vortex mixing for 30 s. 1.5 ml of the CH2Cl2 fraction was evaporated to dryness under air and volatile TMS derivatives prepared by heating the residue with 100 μl of 50% NO-bis(trimethylsilyl)trifluoroacetamide/1% trimethyl chlorosilane in acetonitrile at 56° C. for 30 min. The TMS derivatives of E2 and its metabolites were separated by gas chromatography (H-P 5890, Hewlett-Packard, Wilmington, Del.) on a 5% phenyl methyl silicone stationary phase fused silica capillary column (30 m×0.2 mm×0.5 μm film, HP5; Hewlett-Packard). Helium carrier gas was used at a flow of 1 ml/min. The injector was operated at 250° C., with 2 μl injected in the splitless mode, with a purge (60 ml/min helium) time of 0.6 min. The oven temperature was held at 189° C. for 0.5 min, then raised at 6° C./min to 250° C. where it was held for 17 min, then raised to 300° C. at 8° C./min to give a total run time of 35.42 min. […] The EI mass spectrometer (H-P 5970) was operated in the selected ion monitoring mode from 18 to 34 min. Ions monitored were TMS2-E2-d4 420, 288, 330; TMS2-E2 416, 285, 326; TMS3-2-OH-E2 504, 373; TMS3-4-OH-E2 504, 373, 325; TMS3-16α-OH-E2 345, 311, 504. The instrument was calibrated by simultaneous preparation of an 11-point calibration over the range […]/tube of each compound. […] Internal standard added prior to extraction compensated for deviation from 100% recovery.
(§3) Statistical Analysis. Kinetic parameters (Km and kcat) were determined by nonlinear regression analysis using the computer program GraphPad PRISM (San Diego, Calif.).

CYP1B1 [2] = assay: Assay of CYP1B1 E2 hydroxylation activity; format: biochemical, human; conditions: for 2-OH-Estradiol kcat: E2 2-hydroxylation; for 4-OH-Estradiol kcat: E2 4-hydroxylation; for 16a-OH-Esrradiol kcat: E2 16α-hydroxylation
Procedure: as §1, §2, §3

| Molecule | levels of depurinating DNA adducts versus E2-2,3Q and E1-2,3Q (DNA) | Km (CYP1B1 [1]) | 2-OH-Estradiol kcat (CYP1B1 [2]) | 2-OH-Estradiol kcat (CYP1B1 [2]; listed as Wild type CYP1B1) | 2-OH-Estradiol kcat (CYP1B1 [2]; listed as wild type CYP1B1) | 4-OH-Estradiol kcat (CYP1B1 [2]) | 4-OH-Estradiol kcat (CYP1B1 [2]; listed as Wild type CYP1B1) | 4-OH-Estradiol kcat (CYP1B1 [2]; listed as wild type CYP1B1) | 16a-OH-Esrradiol kcat (CYP1B1 [2]) | 16a-OH-Esrradiol kcat (CYP1B1 [2]; listed as Wild type CYP1B1) | 16a-OH-Esrradiol kcat (CYP1B1 [2]; listed as wild type CYP1B1) |
| --- | --- | --- | --- | --- | --- | --- | --- | --- | --- | --- | --- |
| C[C@]12CC[C@@H]3C4=C(CC[C@H]3[C@@H]1CCC2=O)C(=O)C(=O)C=C4 [E1-3,4Q] | two to three orders of magnitude higher | – | – | – | – | – | – | – | – | – | – |
| C[C@]12CC[C@@H]3C4=C(CC[C@H]3[C@@H]1CC[C@@H]2O)C(=O)C(=O)C=C4 [E2-3,4Q] | two to three orders of magnitude higher | – | – | – | – | – | – | – | – | – | – |
| B1 | – | 34 ± 4 µM | 0.0317 ± 0.0017 s⁻¹ | 0.0317 ± 0.0017 s⁻¹ | 0.0317 ± 0.0017 s⁻¹ | 0.0733 ± 0.0067 s⁻¹ | 0.0733 ± 0.0067 s⁻¹ | 0.0733 ± 0.0067 s⁻¹ | 0.005 ± 0.00033 s⁻¹ | 0.005 ± 0.00033 s⁻¹ | 0.005 ± 0.00033 s⁻¹ |
